Each block holds one molecule with its values, some of them ahead of it.
Assays:
Format in all cases: cell-based
[1] = target: T1, humanized FGFR1c (hR1c)-expressing BaF3 cells (Homo sapiens, UniProt P11362); experiment: DNA synthesis in humanized FGFR1c-expressing BaF3 cells; details: humanized FGFR1c only; 10 μg/ml heparin
T1 construct: expressed in transfected cells; host or cells: BaF3 (mouse pro-B) cells; pSRalpha vector
From the text: In Examples 4, 5, 6, and 7, it was shown that FGF21 reacts with FGFR1c in the presence of betaKlotho. FGFR1c, betaKlotho, FGF21, and the like, which were used in an actual experimental system, were all derived from mice used as typical mammalian models. With regard to these molecules, the homology between a human and a mouse at the amino acid sequence level is extremely high (80% in FGF21, 78% in betaKlotho, and 98% in FGFR1). As a result, naturally, there are no problems regarding the compatibility of the human with the mouse, and thus it is clear that the same results as those from a murine molecule will be obtained even using a humanized molecule. In the present example, as a precautionary measure, an experimental system using a humanized molecule was constructed to confirm such respect, and an experiment was carried out. Specifically, the humanized cDNA of FGFR1c and that of betaKlotho were prepared from a commercially available human RNA sample (Takara Bio Inc.) by PCR. FGFR1c was introduced into an expression vector having an SRalpha promoter (pSRalpha), and betaKlotho was introduced into an expression vector having a CMV promoter (pcDNA3.1; Invitrogen). […] In the presence of heparin, humanized FGF21 was added in various types of concentrations to FGFR1c-expressing cells or FGFR1c/betaKlotho-co-expressing cells, and the amount of DNA synthesized was then measured.

[2] = system: 3T3-L1 fibroblasts forced to express betaKlotho; experiment: GLUT1 mRNA level in 3T3-L1 fibroblasts forced to express betaKlotho; details: betaKlotho expression vector; various concentrations; 6 hours
Experimental: A betaKlotho expression vector or an empty vector used as a control, into which betaKlotho cDNA had not been inserted, were introduced into 3T3-L1 fibroblasts, and FGF21 was then added in various types of concentrations to a culture solution of the 3T3-L1 fibroblasts. The obtained mixture was cultured for 6 hours. Thereafter, RNA was extracted, and the mRNA level of GLUT1 was then measured.

[3] = system: 3T3-L1 fibroblasts forced to express betaKlotho; experiment: Phosphorylation of FRS2 and MAPK in undifferentiated 3T3-L1 cells forced to express betaKlotho; details: betaKlotho expression vector; FGF21 1.1 μg/ml and 4.5 μg/ml; 10 minutes
Experimental: A betaKlotho expression vector produced by the method described in Example 4 and an empty vector used as a control, into which betaKlotho cDNA had not been inserted, were introduced into 3T3-L1 fibroblasts cultured as described in Example 1 by a lipofection method, thereby obtaining Puromycin-resistant clones. These different types of cells were stimulated with FGF21, and 10 minutes after the stimulation, a cell lysate was prepared. The activation of FRS2 and MAPK that were signaling molecules located downstream of FGFR was examined by a Western blotting method.

[4] = system: undifferentiated 3T3-L1 fibroblasts; experiment: GLUT1 mRNA expression in undifferentiated 3T3-L1 fibroblasts; details: various concentrations, 6 hours
Experimental: (§1) It has been reported that FGF21 allows adipocytes to increasingly express glucose transporter 1 (GLUT1). In the present example, as cultured adipocytes, there were used 3T3-L1 cells that are fibroblasts having the ability to differentiate into adipocytes by controlling culture conditions. The cells were cultured in a culture solution of a Dulbecco's modified Eagle medium (DMEM) containing 10% fetal bovine serum (FBS), so as to prepare cells maintaining an undifferentiated property as fibroblasts. The prepared cells were cultured in a test system, and they were allowed to grow to a confluent state. The cells were then left for 2 days. Thereafter, the culture solution was exchanged with DMEM as a culture solution used for differentiation induction, which comprised 10% FBS, 0.25 μM dexamethasone, 0.5 mM methyl isobutyl xanthine, and 5 μg/ml insulin. The cells were cultured for 2 days. […] The term “cells having the properties of adipocytes” is used herein to mean cells, which conduct intracellular metabolism specific to adipocytes and have cytoplasm in which large quantities of fat droplets are accumulated.
(§2) FGF21 were added in various types of concentrations to such different types of culture solutions, and the cells were further culture for 6 hours. Thereafter, RNA was extracted, and the copy number of GLUT1 was counted.

[5] = system: adipocytes differentiated from 3T3-L1 cells; experiment: GLUT1 mRNA expression in 3T3-L1 cells differentiated into adipocytes; details: various concentrations, 6 hours
Experimental: as §1, §2

T1 sequence (P11362 22-822): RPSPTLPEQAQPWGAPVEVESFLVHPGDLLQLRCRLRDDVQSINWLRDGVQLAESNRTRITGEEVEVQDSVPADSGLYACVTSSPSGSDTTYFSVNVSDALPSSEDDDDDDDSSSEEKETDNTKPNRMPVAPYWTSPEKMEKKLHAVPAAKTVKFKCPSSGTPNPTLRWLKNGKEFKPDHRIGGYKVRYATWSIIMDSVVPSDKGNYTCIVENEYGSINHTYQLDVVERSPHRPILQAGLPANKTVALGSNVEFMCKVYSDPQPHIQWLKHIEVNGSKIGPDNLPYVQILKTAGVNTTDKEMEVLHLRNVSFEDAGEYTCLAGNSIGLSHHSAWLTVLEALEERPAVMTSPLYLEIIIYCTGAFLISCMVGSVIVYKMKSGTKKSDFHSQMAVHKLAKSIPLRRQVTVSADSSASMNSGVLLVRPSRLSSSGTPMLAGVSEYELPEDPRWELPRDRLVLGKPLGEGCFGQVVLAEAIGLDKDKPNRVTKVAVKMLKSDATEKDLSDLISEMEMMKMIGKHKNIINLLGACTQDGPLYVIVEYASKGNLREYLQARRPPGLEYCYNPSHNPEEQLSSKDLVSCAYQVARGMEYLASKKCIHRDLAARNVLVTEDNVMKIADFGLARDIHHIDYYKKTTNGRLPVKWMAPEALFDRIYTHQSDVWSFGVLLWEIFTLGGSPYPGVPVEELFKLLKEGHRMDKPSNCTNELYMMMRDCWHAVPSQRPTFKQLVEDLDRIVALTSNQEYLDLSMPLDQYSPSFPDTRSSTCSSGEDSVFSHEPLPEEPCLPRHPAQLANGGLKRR

amount of DNA synthesized (thymidine incorporation) [1]: promoted the DNA synthesis
Molecule: FGF1: conventional FGF used as a control

B1: FGF21: fibroblast growth factor 21; mouse-derived protein used in Examples 1-7 and 10-13 (protein)
chain: AYPIPDSSPLLQFGGQVRQRYLYTDDDQDTEAHLEIREDGTVVGAAHRSPESLLELKALKPGVIQILGVKASRFLCQQPDGALYGSPHFDPEACSFRELLLEDGYNVYQSEAHGLPLRLPQKDSPNQDATSWGPVRFLPMPGLLHEPQDQAGFLPPEPPDVGSSDPLSMVEPLQGRSPSYAS
mRNA level of GLUT1 [2]: increased depending on the amount of FGF21
phosphorylation levels of FRS2 and MAPK [3]: increased
expression level of GLUT1 mRNA [4]: hardly changed
expression level of GLUT1 mRNA [5]: increased

From patent publication US8697369B2, “Method for screening a test substance for activating a receptor associated with FGF 21 activity” (National Institute of Advanced Industrial Science and …, priority 2007, dated 2014)
